Results from article PMC5484120 (Marine Drugs, 2017).
Where no end group is shown, it is not given here. The star is where a group is joined. Cam = NC(=O)C*

Columns and labels:
[1] = target: human α9α10 nicotinic acetylcholine receptor (human) (UniProt Q9UGM1)
[2] = target: rodent α1β1εδ nicotinic acetylcholine receptor (rat α1, β1, δ; mouse ε) (rat | mouse) (UniProt P25108)
[3] = target: O-conotoxin GeXXVIIA, native form (disulfide-linked homodimer) (Conus generalis); assay: mass spectrometry before and after reduction with DTT
α9α10 nAChR = settings: cited from earlier work
[4] = system: rat models of neuropathic pain; settings: in vivo; cited from earlier work
N-type Ca^2+ channel = settings: cited from earlier work

## GeXXVIIA-L-Nter (N-terminal fragment of GeXXVIIA-L after Asp-N digestion) (peptide)
[1]
  IC50 of inhibition of ACh-evoked current of the receptor in Xenopus oocytes: 222 nM
[2]
  IC50 of inhibition of ACh-evoked current of the receptor in Xenopus oocytes: 2190 nM

## O-conotoxin GeXXVIIA, native form (disulfide-linked homodimer) (peptide)
[3]
  stoichiometry N: 2

## Vc1.1
α9α10 nAChR
  IC50: 19 nM
[4]
  pain relief in rat models of neuropathic pain: long lasting relief in rat models of neuropathic pain

## ω-conotoxin MVIIA
N-type Ca^2+ channel
  N-type Ca2+ channel inhibition (in words): selective N-type Ca^2+ channel inhibitor

## ALMSTGTNYRLLKTC(Cam)RGSGRYC(Cam)RSPYDC(Cam)RRRYC(Cam)RRISDAC(Cam)V [GeXXVIIA-L (disulfide-free linear peptide of GeXXVIIA, Cys residues alkylated with iodoacetamide)]
[2]
  IC50 of inhibition of ACh-evoked current of the receptor in Xenopus oocytes: 774 nM
